We go through 13 molecules from patent publication US9976134B2, “Thermolysin variants” (Danisco US Inc., priority 2007, dated 2018).

The labels stand for the following.
B1: Q128I: single-substitution thermolysin variant (SEQ ID NO:3 numbering) (protein, listed as Geobacillus caldoproteolyticus)
chain: ITGTSTVGVGRGVLGDQKNINTTYSTYYYLQDNTRGNGIFTYDAKYRTTLPGSLWADADNQFFASYDAPAVDAHYYAGVTYDYYKNVHNRLSYDGNNAAIRSSVHYSQGYNNAFWNGSQMVYGDGDGITFIPLSGGIDVVAHELTHAVTDYTAGLIYQNESGAINEAISDIFGTLVEFYANKNPDWEIGEDVYTPGISGDSLRSMSDPAKYGDPDHYSKRYTGTQDNGGVHINSGIINKAAYLISQGGTHYGVSVVGIGRDKLGKIFYRALTQYLTPTSNFSQLRAAAVQSATDLYGSTSQEVASVKQAFDAVGVK
B2: T049Q: single-substitution thermolysin variant (SEQ ID NO:3 numbering) (protein, listed as Geobacillus caldoproteolyticus)
chain: B1 chain with T49Q, I128Q
B3: I156M: single-substitution thermolysin variant (SEQ ID NO:3 numbering) (protein, listed as Geobacillus caldoproteolyticus)
chain: B1 chain with I128Q, I156M
B4: Q273Y: single-substitution thermolysin variant (SEQ ID NO:3 numbering) (protein, listed as Geobacillus caldoproteolyticus)
chain: B1 chain with I128Q, Q273Y
B5: T278M: single-substitution thermolysin variant (SEQ ID NO:3 numbering) (protein, listed as Geobacillus caldoproteolyticus)
chain: B1 chain with I128Q, T278M
B6: Y151W: single-substitution thermolysin variant (SEQ ID NO:3 numbering) (protein, listed as Geobacillus caldoproteolyticus)
chain: B1 chain with I128Q, Y151W
B7: I156W: single-substitution thermolysin variant (SEQ ID NO:3 numbering) (protein, listed as Geobacillus caldoproteolyticus)
chain: B1 chain with I128Q, I156W
B8: I156R: single-substitution thermolysin variant (SEQ ID NO:3 numbering) (protein, listed as Geobacillus caldoproteolyticus)
chain: B1 chain with I128Q, I156R
B9: I156T: single-substitution thermolysin variant (SEQ ID NO:3 numbering) (protein, listed as Geobacillus caldoproteolyticus)
chain: B1 chain with I128Q, I156T
B10: T049I: single-substitution thermolysin variant (SEQ ID NO:3 numbering) (protein, listed as Geobacillus caldoproteolyticus)
chain: B1 chain with T49I, I128Q
B11: Q128M: single-substitution thermolysin variant (SEQ ID NO:3 numbering) (protein, listed as Geobacillus caldoproteolyticus)
chain: B1 chain with I128M
B12: Y151V: single-substitution thermolysin variant (SEQ ID NO:3 numbering) (protein, listed as Geobacillus caldoproteolyticus)
chain: B1 chain with I128Q, Y151V
B13: T049L: single-substitution thermolysin variant (SEQ ID NO:3 numbering) (protein, listed as Geobacillus caldoproteolyticus)
chain: B1 chain with T49L, I128Q

Where a chain is given by its changes, count along the chain named. Names may count otherwise.

Test in one series: not given
The conditions noted are these: TIDE 2X 0.78 g/l, 6 gpg, pH 8.2, 30 min at 20°C, A405; variant vs wild-type thermolysin at same protein concentration. How it is done:
Thermolysin containing protease samples were obtained from filtered broth of cultures grown in microtiter plates for 3 days at 37° C. with shaking at 280 rpm under humidified aeration.
• Thermolysin containing culture supernatants (˜100-200 μg protein per ml) • TIDE® 2× (nil enzymes) detergent (P&G) • Dilution Buffer (10 mM NaCl, 0.1 mM CaCl2, 0.005% TWEEN®-80) The equipment used was a Biomek FX Robot (Beckman Coulter), a SpectraMAX MTP Reader (type 340; Molecular Devices), and an iEMS incubator/shaker (Thermo/Labsystems). MTPs were obtained from Costar (type 9017). TIDE® 2× Liquid Detergent Preparation (US Conditions):
Milli-Q water was adjusted to 6 gpg water hardness using a (Ca/Mg 3:1) hardness stock solution (282.3 g/L CaCl2.2H20, 130.1 g/L MgCl2.6H2O), 0.78 g/1 detergent TIDE® 2× was added, and the detergent solution was stirred vigorously for at least 15 minutes. Then, 5 mM HEPES was added and the pH adjusted to 8.2.
Microswatches of ¼ inch circular diameter were obtained from CFT (Vlaardingen, The Netherlands).
Two microswatches were placed vertically into each well of a 96-well microtiter plate to expose the whole surface area (i.e., not flat on the bottom of the well).
The incubator was set to 20° C. The filtered culture broth samples were tested at an appropriate concentration by dilution with a mixture of 10 mM NaCl, 0.1 mM CaCl2, 0.005% TWEEN®-80 solution. The detergent solution was prepared as described above. Then, 190 μl of detergent solution were added to each well of the MTP, containing microswatches. To this mixture, 10 μl of diluted enzyme solution were added to each well (to provide a total volume of 200 μl/well). The MTP was covered with a plate seal and placed in an incubator for 30 minutes at 20° C., with agitation at 1400 rpm (iEMS incubator). Following incubation under the appropriate conditions, 100 μl of solution from each well was removed and placed into a new MTP. Subsequently this MTP, containing 100 μl of solution/well, was read at 405 nm in a MTP-Reader. Blank controls, containing 2 microswatches/well and detergent, without the addition of thermolysin containing samples, were also included in the test.
The observed absorbance value was corrected for the blank value (obtained after incubation of microswatches in the absence of added enzyme). The resulting absorbance was a measure for the hydrolytic activity. For each sample (thermolysin or a variant) the performance index (PI) was calculated. The performance index is a comparison of the performance of the variant (actual value) and the standard thermolysin enzyme (theoretical value) at the same protein concentration. In addition, the theoretical values were calculated, using the parameters of the Langmuir equation of the standard enzyme.
C. Stability Assay in the Presence of Detergent
In this example, experiments were conducted to determine the stain removal performance of various singly substituted thermolysin (also referred to herein as Proteinase-T or PrT) variants. As described in Example 1, the stain cleaning performance of thermolysin variants was done utilizing a blood/milk/ink (BMI) microswatch assay. Briefly the cleaning performance of chosen single-substitution thermolysin variants was assessed in a TIDE® 2× microswatch assay.
Regarding B1, the “PI (performance index), stain removal” value amounted to 1.34.
For the molecule B2, the “PI (performance index), stain removal” value came to 1.30.
Take B3: the “PI (performance index), stain removal” value turned out to be 1.11.
On the same count and under the same terms, the value for B4 was 1.09.
The same measure, in the same setting: as for B5, the figure is 1.02; as for B6, 1.22.
On the same count and under the same terms, as for B7, the figure is 1.16; as for B8, 1.22.
Consider B9, for which the “PI (performance index), stain removal” value is reported as 1.03.
Same read-out and setting: the value for B10 was 1.24; that for B11 was 1.10.
The same measure, in the same setting: as for B12, the figure is 1.25.
Same read-out and setting: the value for B13 was 1.25.

A further series can be described thus: Stability assay in 25% TIDE 2X detergent with DTPA (residual Abz-AGLA-Nba protease activity). The conditions noted are these: 60 min at 32°C; variant residual AGLA activity divided by wild-type residual activity. The class given is physicochemical. Summed up: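 Thermolysin variant culture supernatants stressed in TIDE 2× detergent, with or without DTPA: 60 min at 32° C or 180 min at 50° C. Residual versus unstressed activity on Abz-AGLA-Nba read kinetically at 25° C (Ex 350/Em 420). Performance index is variant residual activity divided by wild-type thermolysin residual activity.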
Regarding B1, the “PI (relative stability), 25% TIDE 2X with DTPA” value came to 1.32.
Take B3: the “PI (relative stability), 25% TIDE 2X with DTPA” value turned out to be 1.19.
The same measure, in the same setting: the value for B4 was 1.05.
The same measure, in the same setting: as for B5, the figure is 1.09; as for B6, 1.02; as for B7, 1.12.
Same read-out and setting: the value for B8 was 1.15; that for B9 was 1.08.
Turning to B10, the “PI (relative stability), 25% TIDE 2X with DTPA” value is 1.01.
Still for that read-out and setting: as for B11, the figure is 1.06; as for B12, 1.11.
Turning to B13, the “PI (relative stability), 25% TIDE 2X with DTPA” value amounted to 1.02.

A short description of a further series: Stability assay in 25% TIDE 2X detergent without DTPA (residual Abz-AGLA-Nba protease activity). The class given is physicochemical. The conditions noted are these: 180 min at 50°C; variant residual AGLA activity divided by wild-type residual activity. How it is done:
The stability of thermolysin and variants thereof was measured after incubation under defined conditions in the presence of 25% TIDE® 2× detergent. The initial and residual activity was determined.
MTPs were obtained from Costar (type 9017) and from Greiner (black plate, type 655076). Test Method Unstressed Conditions:
First, 20 μl thermolysin containing culture supernatant was diluted with 180 μl MES assay buffer. Then, 20 μl diluted supernatant was diluted further with 180 μl MES assay buffer. Subsequently 10 μl of this dilution was transferred into 190 μl AGLA-substrate solution in a pre-warmed plate (Greiner 655076) at 25° C. Any air bubbles present were blown away and the plate was measured according to the AGLA protease assay protocol described below.
First, 20 μl of culture supernatant was diluted with 180 μl 27.5% TIDE®+detergent solution and placed in the iEMS shaker. The plate covered with a plate seal was incubated for a total of 60 minutes at 32° C. at 900 rpm. In addition, 20 μl of culture supernatant was diluted with 180 μl 27.5% TIDE®−solution and placed in the iEMS shaker. This plate covered with a plate seal was incubated for a total of 180 minutes at 50° C. at 900 rpm.
Subsequently after the respective incubations, 20 μl of either of these solutions were diluted with 180 μl MES assay buffer and 10 μl of this dilution were diluted with 190 μl AGLA-substrate solution in a pre-warmed plate (Greiner 655076) at 25° C.
Fluorescence measurements were taken at excitation of 350 nm and emission of 420 nm. The spectrofluorometer software calculated the reaction rates (=slope) of the increase in fluorescence for each well to a linearly regressed line of (milli-) RFU/min. The ratio of the residual and initial AGLA activity was used to express the 25% TIDE® 2× stability as follows: Percentage of residual activity=[slope of stressed]*100/[slope of unstressed]
For each sample (thermolysin and variants thereof) the performance index was calculated by dividing the residual activity of the variant by the residual activity of thermolysin. The performance index compared the stability of the variant and the standard thermolysin enzyme (e.g., wild type or parental enzyme), determined under the same conditions.
In these experiments, the liberation of Abz-AG by protease cleavage of Abz-AGLA-Nba was monitored by fluorescence spectrometry (Ex. 350/Em. 420). The rate of appearance of Abz-AG was a measure of proteolytic activity.
The Abz-AGLA-Nba assay solution was prepared by adding 1 ml of the Abz-AGLA-Nba stock to 19 ml MES substrate buffer and mixed well for at least 2 minutes. Subsequently the thermolysin or variants thereof containing culture supernatants were diluted with MES assay buffer to a concentration of 1-6 μg protein per ml.
The assay was performed by adding 10 μl of diluted protease solution to each well, followed by the addition of 190 μl Abz-AGLA-Nba assay solution that was pre-equilibrated for at least 15 minutes at 25° C. The solutions were vigorously mixed, and the liberation of Abz-AG by protease cleavage of Abz-AGLA-Nba was monitored by fluorescence spectrometry at 25° C. in kinetic mode with excitation set at 350 nm and emission set at 420 nm. The rate of appearance of Abz-AG was a measure of proteolytic activity in the samples. The protease activity was expressed as RFU (relative fluorescence units·min^−1).
As described in Example 1, the stability of thermolysin variants was measured by determining the AGLA activity before and after incubation in the presence of TIDE® 2× heavy duty liquid (HDL) detergent at an elevated temperature. The tables contain the relative stability values compared to wild-type thermolysin, which is the quotient of the variant residual activity divided by the wild-type residual activity. A value greater than one indicates higher stability in the presence of detergent. […]
Turning to B1, the “PI (relative stability), 25% TIDE 2X without DTPA” value came to 1.19.
Still for that read-out and setting: as for B2, the figure is 1.07.
Same read-out and setting: as for B11, the figure is 1.09.
